Assay results from paper PMC10319729.

How the values were obtained:
[1] = target: ZNRF3ΔRING (ZNRF3 with deletion of the RING domain) on HEK293T cells (UniProt Q9ULT6); experiment: whole-cell binding, fluorescence plate reader; Fc-tagged ligand in 3x serial dilution on cells in 96-well plates, on ice 1 h, washed, fixed with 4.2% paraformaldehyde, Alexa555-labeled anti-human IgG antibody; half-maximum binding (KD) from a three-parameter dose-response fit
[2] = target: RNF43-ECDTM (RNF43 extracellular domain anchored by its transmembrane domain) on HEK293T cells (UniProt Q68DV7); experiment: as above
[3] = target: LGR5ΔCT (human LGR5 without the cytoplasmic C-terminal tail) on HEK293 cells (human) (UniProt O75473); experiment: whole-cell binding, fluorescence plate reader; His-tagged ligand in 3x serial dilution on cells in 96-well plates, on ice 1 h, washed, fixed with 4.2% paraformaldehyde, Alexa488-labeled anti-His antibody; half-maximum binding (KD) from a three-parameter dose-response fit
[4] = target: LGR5ΔCT (human LGR5 without the cytoplasmic C-terminal tail) on HEK293 cells (human) (UniProt O75473); experiment: whole-cell binding, fluorescence plate reader; Fc-tagged ligand in 3x serial dilution on cells in 96-well plates, on ice 1 h, washed, fixed with 4.2% paraformaldehyde, Alexa555-labeled anti-human IgG antibody; half-maximum binding (KD) from a three-parameter dose-response fit
[5] = target: LGR4 (HA-LGR4) over-expressed on HEK293 cells (UniProt Q9BXB1); experiment: as above

RNF43-ECDTM (RNF43 extracellular domain anchored by its transmembrane domain) on HEK293T cells, sequence (Q68DV7 24-218): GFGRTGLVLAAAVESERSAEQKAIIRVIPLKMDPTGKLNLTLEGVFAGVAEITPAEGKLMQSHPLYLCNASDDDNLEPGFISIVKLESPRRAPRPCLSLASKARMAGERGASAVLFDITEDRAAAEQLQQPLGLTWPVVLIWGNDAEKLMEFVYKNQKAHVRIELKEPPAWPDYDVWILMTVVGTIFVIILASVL

Kd [1]	Kd [2]	Kd [3]	Kd [4]	Kd [5]	Substance
2.9 nM	6.3 nM				R2Fu-Q70R-bFc (bivalent RSPO2 furin domain with Gln70 to Arg) (from UniProt Q6UXX9 22-243) (Fc fusion)
		1.9 nM			RSPO2 furin domain with a C-terminal His tag (R2Fu-His) (from UniProt Q6UXX9 37-143) (domain or fragment)
		2.6 nM			R2FuTSP-His (RSPO2 furin domain with TSP domain, His-tagged) (from UniProt Q6UXX9 22-205) (domain or fragment)
			1.4 nM	> 50 nM	R2Fu-mFc (RSPO2 furin domain fused to monomeric human IgG4-Fc, monovalent) (from UniProt Q6UXX9 37-143) (Fc fusion)
			0.8 nM	1.6 nM	R2Fu-bFc (RSPO2 furin domain fused to wild-type IgG1-Fc, bivalent) (from UniProt Q6UXX9 37-143) (Fc fusion)
> 100 nM	> 100 nM				R2Fu-Q70R-mFc (monovalent RSPO2 furin domain with Gln70 to Arg) (from UniProt Q6UXX9 22-243) (Fc fusion)
